The values below come from PMC11087511.

Series [1] deals with T1, human alpha-thrombin (human, UniProt P00734;P00734 328-363;364-622). Briefly: inhibition of fluorogenic peptide cleavage; maximum inhibition 55%; not given in the material (Methods for BLI and fluorogenic assay are headings only).
The target in series [2] is T1, human alpha-thrombin. Briefly: BLI; kon 3.9e7 M-1s-1, koff 2.1e-3 s-1; DAB moiety binds active site; not given in the material (Methods for BLI and fluorogenic assay are headings only). On the technique in general: BLI is a label-free optical method that tracks binding on a fibre tip over time.
The next series addresses thrombin S195A (UniProt P00734;P00734 315-363;364-622, S568A). Kind of series: X-ray crystallography; 2.2 A; Na+; DAB in S1 pocket, aptamer at exosite 2; not given in the material (Methods for BLI and fluorogenic assay are headings only).
The target in series [3] is T1, human alpha-thrombin. Briefly: inhibition of fluorogenic peptide cleavage; DAB moiety contributes; max inhibition >99%; not given in the material (Methods for BLI and fluorogenic assay are headings only).
Series [4] deals with T1, human alpha-thrombin. Briefly: BLI; not given in the material (Methods for BLI and fluorogenic assay are headings only).
Series [5] concerns the target T1, human alpha-thrombin. Kind of series: inhibition of fluorogenic peptide cleavage; maximum inhibition 30%; not given in the material (Methods for BLI and fluorogenic assay are headings only).

In the case of AGTCCGTGGTAGGGCAGGTTGGGGTGACT (structured_DNA, 5' C6-dabigatran) [HD22-0A-DAB], in the series with human alpha-thrombin [1], 0.55 nM corresponded to half-maximal inhibition (IC50).

As to AAAAAAAAGTCCGTGGTAGGGCAGGTTGGGGTGACT (structured_DNA, 5' C6-dabigatran) [Bio-HD22-7A-DAB], the Kd in the series with human alpha-thrombin [2] was found to be 0.054 nM. That is a picomolar value.

As to AAAAAAAAGTCCGTGGTAGGGCAGGTTGGGGTGACT (structured_DNA, 5' C6-dabigatran) [HD22-7A-DAB], the binding result with thrombin S195A is “binds”. In the series with human alpha-thrombin [3], this molecule registered a half-maximal inhibitory concentration (IC50) of 0.1 nM.

With AAAAAAAAGTCCGTAATAAAGCAGGTTAAAATGACT (ssDNA, 5' C6-amine) [Bio-HD23-7A-NH2], in the series with human alpha-thrombin [4], the binding result is given as “no binding”.

For AGTCCGTGGTAGGGCAGGTTGGGGTGACT (structured_DNA) [HD22], in the series with human alpha-thrombin [5], the midpoint of inhibition, the IC50, lay at 0.95 nM.

The IC50 is the concentration that gives 50% inhibition. One may read the Kd as the free concentration of one partner at which half of the binding sites on the other are occupied at equilibrium, for simple one-to-one binding.
